The labels stand for the following.
B1: Coiled-coil domain-containing protein 124 (Homo sapiens), Q96CT7 (parent)
chain: MPKKFQGENTKSAAARARRAEAKAAADAKKQKELEDAYWKDDDKHVMRKEQRKEEKEKRRLDQLERKKETQRLLEEEDSKLKGGKAPRVATSSKVTRAQIEDTLRRDHQLREAPDTAEKAKSHLEVPLEENVNRRVLEEGSVEARTIEDAIAVLSVAEEAADRHPERRMRAAFTAFEEAQLPRLKQENPNMRLSQLKQLLKKEWLRSPDNPMNQRAVPFNAPK

In test [1] the parent is B1. The settings on record: with npm_human NPM1, P06748.
The variants in test [2] derive from B1. The settings on record: with npm_human NPM1, P06748. This is another data set of the same source.

Sequence of npm_human NPM1, P06748 (P06748 whole entry): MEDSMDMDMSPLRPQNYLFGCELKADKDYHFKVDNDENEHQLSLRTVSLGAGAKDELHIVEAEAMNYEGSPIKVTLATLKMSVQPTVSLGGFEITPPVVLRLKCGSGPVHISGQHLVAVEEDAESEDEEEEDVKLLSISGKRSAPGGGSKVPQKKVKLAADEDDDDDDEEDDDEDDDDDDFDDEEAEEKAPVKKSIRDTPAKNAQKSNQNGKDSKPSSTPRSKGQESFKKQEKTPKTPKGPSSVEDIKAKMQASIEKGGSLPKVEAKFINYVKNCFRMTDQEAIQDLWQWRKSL

In the case of S122A;S141A, the “effect of a mutation on the interaction” value with npm_human NPM1, P06748 [1] is given as “decreasing interaction strength”; in the test with npm_human NPM1, P06748 [2] it was “with no effect”.

Regarding S122A, the “effect of a mutation on the interaction” value was “decreasing interaction strength” with npm_human NPM1, P06748 [1] and “disrupting interaction strength” in the test with npm_human NPM1, P06748 [2].

Regarding S141A, the “effect of a mutation on the interaction” value was “decreasing interaction strength” with npm_human NPM1, P06748 [1] and “with no effect” with npm_human NPM1, P06748 [2].
